Measured values: patent US20140120109A1 (Regeneron, published 2014)

T1: cynomolgus monkey TL1A, soluble, CHO-expressed, residues 72-251 of SEQ ID NO:248 with N-terminal His6-tag (cynomolgus monkey (Macaca fascicularis), UniProt O95150 72-251 (human entry))
T1 chain: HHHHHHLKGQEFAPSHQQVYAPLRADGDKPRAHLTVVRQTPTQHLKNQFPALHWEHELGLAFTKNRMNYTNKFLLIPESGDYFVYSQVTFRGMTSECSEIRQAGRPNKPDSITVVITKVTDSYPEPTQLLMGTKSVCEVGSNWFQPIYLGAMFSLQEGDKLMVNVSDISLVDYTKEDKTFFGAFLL

T2: cynomolgus monkey TL1A, soluble, E. coli-expressed, residues 72-251 of SEQ ID NO:248 (cynomolgus monkey (Macaca fascicularis), UniProt O95150 72-251 (human entry))
T2 chain: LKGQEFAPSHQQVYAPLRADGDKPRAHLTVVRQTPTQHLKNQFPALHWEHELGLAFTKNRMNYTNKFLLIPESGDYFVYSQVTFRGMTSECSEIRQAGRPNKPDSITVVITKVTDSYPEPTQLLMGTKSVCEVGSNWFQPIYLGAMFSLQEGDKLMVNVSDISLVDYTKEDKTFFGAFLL

T3: full length human TL1A expressed on HEK293 cells (human, UniProt O95150 1-251)
T3 sequence: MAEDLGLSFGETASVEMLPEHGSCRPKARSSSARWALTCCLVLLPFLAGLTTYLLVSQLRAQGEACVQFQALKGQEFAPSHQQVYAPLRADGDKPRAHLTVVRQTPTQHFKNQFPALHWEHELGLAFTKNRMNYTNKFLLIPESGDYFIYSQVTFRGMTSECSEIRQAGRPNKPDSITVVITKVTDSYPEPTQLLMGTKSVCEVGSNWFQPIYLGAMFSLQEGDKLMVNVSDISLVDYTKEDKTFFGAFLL

T4: full-length Fhm, human TL1A(Q167R), expressed on HEK293 cells (human, UniProt O95150 1-251)
T4 sequence: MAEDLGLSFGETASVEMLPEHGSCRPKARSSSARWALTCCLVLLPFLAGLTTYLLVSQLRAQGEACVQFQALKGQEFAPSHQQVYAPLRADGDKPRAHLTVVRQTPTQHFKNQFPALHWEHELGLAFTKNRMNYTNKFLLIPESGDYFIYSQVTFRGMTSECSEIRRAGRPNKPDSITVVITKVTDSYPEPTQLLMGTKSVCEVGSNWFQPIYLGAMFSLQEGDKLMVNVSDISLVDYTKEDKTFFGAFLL

T5: full-length cynomolgus monkey TL1A expressed on HEK293 cells (cynomolgus monkey (Macaca fascicularis), UniProt O95150 1-251 (human entry))
T5 chain: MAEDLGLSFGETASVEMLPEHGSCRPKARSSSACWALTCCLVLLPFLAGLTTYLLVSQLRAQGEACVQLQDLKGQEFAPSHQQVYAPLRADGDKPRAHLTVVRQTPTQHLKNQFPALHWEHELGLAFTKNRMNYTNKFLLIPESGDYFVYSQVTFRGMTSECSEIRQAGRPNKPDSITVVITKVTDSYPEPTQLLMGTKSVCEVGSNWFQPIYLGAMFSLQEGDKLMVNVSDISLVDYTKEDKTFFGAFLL

T6: human TL1A, soluble, CHO-expressed, residues 72-251 of SEQ ID NO:244 with N-terminal His6-tag (human, UniProt O95150 72-251)
T6 sequence: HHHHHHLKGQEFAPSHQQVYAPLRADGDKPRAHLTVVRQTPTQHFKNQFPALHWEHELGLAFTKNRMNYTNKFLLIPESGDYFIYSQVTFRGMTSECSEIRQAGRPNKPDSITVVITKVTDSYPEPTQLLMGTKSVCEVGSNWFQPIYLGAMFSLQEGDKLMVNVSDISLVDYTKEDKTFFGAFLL

T7: Fhm, hTL1A(Q167R), soluble, E. coli-expressed, residues 72-251 of SEQ ID NO:246 (human, UniProt O95150 72-251)
T7 construct: with or without N-terminal Met
T7 chain: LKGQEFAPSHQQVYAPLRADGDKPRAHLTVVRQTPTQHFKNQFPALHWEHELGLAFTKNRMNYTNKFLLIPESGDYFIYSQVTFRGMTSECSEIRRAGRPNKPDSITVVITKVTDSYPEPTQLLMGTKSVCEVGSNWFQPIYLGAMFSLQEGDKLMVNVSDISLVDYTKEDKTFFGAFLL


Key:
[1] = molecular target: T1, cynomolgus monkey TL1A, soluble, …; assay: cell-based or functional assay
[2] = molecular target: T2, cynomolgus monkey TL1A, soluble, E. …; assay: cell-based or functional assay
[3] = molecular target: T3, full length human TL1A expressed on …; assay: cell-based or functional assay
[4] = molecular target: T4, full-length Fhm, human TL1A(Q167R), …; assay: cell-based or functional assay
[5] = molecular target: T5, full-length cynomolgus monkey TL1A …; assay: cell-based or functional assay
[6] = molecular target: T6, human TL1A, soluble, CHO-expressed, …; assay: cell-based or functional assay
[7] = molecular target: T7, Fhm, hTL1A(Q167R), soluble, E. …; assay: SPR 25C, mAb captured
Procedure, shortened: (§1)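 Biacore T100 SPR with captured mAb and soluble TL1A/Fhm analyte; ka and kd fitted to a 1:1 model assuming monomeric TL1A. KD = kd/ka; t1/2 (min) = ln2/(60·kd).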

[8] = molecular target: T2, cynomolgus monkey TL1A, soluble, E. …; assay: SPR 25C, mAb captured
Procedure, shortened: as §1

Binder | IC50, NFkB-luciferase reporter [1] [nM] | IC50, NFkB-luciferase reporter [2] [nM] | IC50, reporter + 10,000 TL1A cells [3] [nM] | IC50, reporter + 10,000 TL1A cells [4] [nM] | IC50, reporter + 10,000 TL1A cells [5] [nM] | IC50, IFN-g release, average of donors [6] [nM] | IC50, IFN-g release, donor D1 [6] [nM] | IC50, IFN-g release, donor D2 [6] [nM] | IC50, IFN-g release, donor D3 [6] [nM] | IC50, IFN-g release, donor D4 [6] [nM] | IC50, IFN-g release, donor D5 [6] [nM] | IC50, IFN-g release, donor D6 [6] [nM] | IC50, IFN-g release, donor D7 [6] [nM] | IC50, IFN-g release, donor D8 [6] [nM] | IC50, IFN-g release, donor D9 [6] [nM] | IC50, IFN-g release, donor D10 [6] [nM] | IC50, IFN-g release, donor D11 [6] [nM] | IC50, IFN-g release, donor D12 [6] [nM] | also measured
H4H1804N (antibody, human IgG4 S228P, V domains shown, human IgG4(S108P) form of H2M1804N) VH: QVQLHQWGAGLLKPSETLSLTCAVSGVSFSDYHWAWIRQSPGKGLEWIGDINHRGRTNYNPSLKSRVTISLDTSGNPFSLKLTSVTAADTAVYYCARDFPNWVFDSWGQGILVTVSS VL: EIVLSQSPGTLSLSPGERATLSCRASQSVSSSFLAWYQQYPGQAPRLLIYGASRRATGIPDRFRGSGSGTDFTLTISRLEPEDFAVYYCQQYGSSPLTFGGGTKVENK | 0.03 | 0.02 | 0.56 | 1.23 | 2.23 | 8.8 | 6.8 | 8.6 | 8.6 | 7.7 | 6.7 | 8.6 | 12 | 11 | 8.1 | 12 | 7.6 | 7.5 | 
H4H1752P (antibody, human IgG4 S228P, V domains shown) VH: EVQLVESGGGLVQPGGSLRLSCSASGFTFSKYVMTWVRQAPGKGLEWVSAIGPTGRTTEYADSVQGRFTISRDNSMNTVFLHLNSLTAEDTAEYYCAKMFDWNYDVYFDSWGQGTLVTVSS VL: DIQMTQSPSILSASVGDRVTITCRTSQSISNWLAWYQQKPGKAPNLLIYKASSLESGVPSRFSGSGSGTEFTLTISSLQPDDFATYYCQQYYRYWTFGQGTKVEIK | 0.12 | 0.05 | 1.99 | 138 | 11.7 |  |  |  |  |  |  |  |  |  |  |  |  |  | binding result [7]: no binding (tested: up to 100 nM); Kd [8]: 0.274 nM; t1/2 [8]: 2.03 h
H4H1681N (antibody, human IgG4 S228P, V domains shown) VH: EVQLLESGGGLVQPGKSLRLSCAVSGFTFSTYGMNWVRQAPGKGLEWVSSISGTGRTTYHADSVQGRFTVSRDNSKNILYLQMNSLRADDTAVYFCTKERGDYYYGVFDYWGQGTLVTVSS VL: DIQMTQSPSTLSASVGDRVTITCRASQTISSWLAWYQQTPEKAPKLLIYAASNLQSGVPSRFSGSGSGTEFTLTISSLQPDDFATYYCQQYHRSWTFGQGTKVEIT | 0.03 | 0.02 | 0.66 |  | 3.07 |  |  |  |  |  |  |  |  |  |  |  |  |  | 
H4H1818N (antibody, human IgG4 S228P, V domains shown, human IgG4(S108P) form of H2M1818N) VH: RLQLVESGGGLVKPGGSLKLSCAASGFTISDYYMSWIRQAPGKGLEWVSYIGGSGSTIYYADSVKGRFTISRDNAKNSLYLQMNSLRAEDTAVYYCAREDADSYYYYGMDVWGQGTTVTVSS VL: not shown | 0.13 | 0.06 | 1.54 | 1.42 | 4.29 |  |  |  |  |  |  |  |  |  |  |  |  |  | 
H4H1817N (antibody, human IgG4 S228P, V domains shown, human IgG4(S108P) form of H2M1817N) VH: QVQLQQWGAGLLKPSETLSLTCAVSGGSFSDYFWTWIRQPPGKGLEWIGEISHSGRTNYNPSLKSRVTISVDTSMSQFSLKMTSVTAADSAVYYCARDYPNWVFDYWGQGTLVTVSS VL: EIELTQSPGTLSLSPGEGATLSCRASQSVFNSYLAWYQQKPGQAPRLLIYGASRRATGIPDRFSGSGSGTDFTLTISRLEPGDFAVYFCQQYGNSPLTFGGGTKVEIK | 0.04 | 0.02 | 1.11 | 0.62 | 5.04 | 6.5 | 6.6 | 3.1 | 4.7 | 2.4 | 8.5 | 4.7 | 7 | 7 | 9.5 | 7.3 | 7.3 | 9.4 | 

Continued, in another order:

IC50, NFkB-luciferase reporter [1] [nM] | IC50, NFkB-luciferase reporter [2] [nM] | IC50, reporter + 10,000 TL1A cells [3] [nM] | IC50, reporter + 10,000 TL1A cells [4] [nM] | IC50, reporter + 10,000 TL1A cells [5] [nM] | IC50, IFN-g release, average of donors [6] [nM] | IC50, IFN-g release, donor D1 [6] [nM] | IC50, IFN-g release, donor D2 [6] [nM] | IC50, IFN-g release, donor D3 [6] [nM] | IC50, IFN-g release, donor D4 [6] [nM] | IC50, IFN-g release, donor D5 [6] [nM] | IC50, IFN-g release, donor D6 [6] [nM] | IC50, IFN-g release, donor D7 [6] [nM] | IC50, IFN-g release, donor D8 [6] [nM] | IC50, IFN-g release, donor D9 [6] [nM] | IC50, IFN-g release, donor D10 [6] [nM] | IC50, IFN-g release, donor D11 [6] [nM] | IC50, IFN-g release, donor D12 [6] [nM] | Binder | also measured
0.01 | 0.03 | 1.11 | 1.58 | 3.76 | 12 |  |  |  |  | 17 | 11 | 12 | 19 | 7.5 | 10 | 11 | 8 | H4H1704N (antibody, human IgG4 S228P, V domains shown, human IgG4(S108P) form of H2M1704N) VH: EVQLVESGGGLVQPGGSLRLSCAVSGFTFSSYWMSWVRQAPGKGLEWVANIKEDGSEKNYVDSVKGRFTLSSDNAKNSLYLQMNSLRAEDTAVYYCAREDYDSYYKYGMDVWGQGTAVIVSS VL: not shown | 
0.03 | 0.02 | 0.82 | 54.1 | 1.93 | 4 | 2.4 | 5.5 | 3.4 | 2.5 | 2.9 | 3.4 | 8 | 5.1 | 5.9 | 2.8 | 3 | 3.1 | H4H1805N (antibody, human IgG4 S228P, V domains shown, human IgG4(S108P) form of H2M1805N) VH: QVQLQQWGAGLLKPSETLSLTCAVYGGSFTGFYWSWIRQPPGKGLEWIGEINHRGNTNYNPSLKSRVTMSVDTSKNQFSLNMISVTAADTAMYFCASPFYDFWSGSDYWGQGTLVTVSS VL: DIMLTQTPLTSPVTLGQPASISCKSSQSLVHSDGNTYLSWLQQRPGQPPRLLFYKISNRFSGVPDRFSGSGAGTDFTLKISRVEAEDVGVYYCMQATQFPLTFGGGTKVEIK | 
0.01 | 0.02 | 0.82 | 0.84 | 3 |  |  |  |  |  |  |  |  |  |  |  |  |  | H4H1719P (antibody, human IgG4 S228P, V domains shown) VH: EVQLVESGGGLVQPGRSLRLSCVASGFTFQDYAMHWVRQAPGKGLEWVSGINWISDDMGYADSVMGRFTISRDNAKNSLYLQMDSLRAEDTALYYCAKDKGLRFLDYVMDVWGQGTTVTVSA VL: DIVMTQSPLSLPVTPGEPASISCRSTQSLLHRNGHNYLHWYLHKPGQSPQLLIHLGSNRASGVPDRFSGSGSGTDFTLKISRVEAEDVGVYYCMQALQTPYTFGQGTKLEIK | Kd [7]: 0.109 nM; t1/2 [7]: 1.6 h; Kd [8]: 0.242 nM; t1/2 [8]: 1.32 h
